In patent publication US20190077849A1:

Key:
Test in all cases: cell-based or functional assay
[1] = biological target: HIV-1 Env of 6095.V1.C10.SG3 pseudovirus (clade ACD) (HIV-1)
[2] = biological target: HIV-1 Env of ZM106.9.SG3 pseudovirus (clade C) (HIV-1)
[3] = biological target: HIV-1 Env of ZM215.8.SG3 pseudovirus (clade C) (HIV-1)
[4] = biological target: HIV-1 Env of CNE31.SG3 pseudovirus (clade C) (HIV-1)
[5] = biological target: HIV-1 Env of 6101.10.SG3 pseudovirus (clade B) (HIV-1)
[6] = biological target: HIV-1 Env of YU2.DG.SG3 pseudovirus (clade B) (HIV-1) (UniProt P35961)
[7] = biological target: HIV-1 Env of PVO.04.SG3 pseudovirus (clade B) (HIV-1)
[8] = biological target: HIV-1 Env of KER2008.12.SG3 pseudovirus (clade A) (HIV-1)
[9] = biological target: HIV-1 Env of TH966.8.SG3 pseudovirus (clade AE) (HIV-1)

Question: Which IC50, pseudovirus neutralization [1] does the source give for 10E8v4 VL Y32K (antibody) here?
Answer: The IC50, pseudovirus neutralization was 0.359 µg/mL.

Question: And the IC50, pseudovirus neutralization [2]?
Answer: Its IC50, pseudovirus neutralization is greater than 50 µg/mL.

Question: And the IC50, pseudovirus neutralization [3]?
Answer: Its IC50, pseudovirus neutralization is 33 µg/mL.

Question: What about the IC50, pseudovirus neutralization [4] of the same substance?
Answer: Its IC50, pseudovirus neutralization is greater than 50 µg/mL.

Question: What about the IC50, pseudovirus neutralization [5] of the same substance?
Answer: The IC50, pseudovirus neutralization was greater than 50 µg/mL.

Question: What about the IC50, pseudovirus neutralization [6] of the same substance?
Answer: The IC50, pseudovirus neutralization was greater than 50 µg/mL.

Question: What about the IC50, pseudovirus neutralization [7] of the same substance?
Answer: Its IC50, pseudovirus neutralization is greater than 50 µg/mL.

Question: And the IC50, pseudovirus neutralization [8]?
Answer: Its IC50, pseudovirus neutralization is greater than 50 µg/mL.

Question: And the IC50, pseudovirus neutralization [9]?
Answer: Its IC50, pseudovirus neutralization is 10.2 µg/mL.

Question: Which IC50, pseudovirus neutralization [1] does the source give for 10E8v4 VL Y32L (antibody) here?
Answer: Its IC50, pseudovirus neutralization is 0.593 µg/mL.

Question: And the IC50, pseudovirus neutralization [2]?
Answer: The IC50, pseudovirus neutralization was greater than 50 µg/mL.

Question: And the IC50, pseudovirus neutralization [3]?
Answer: The IC50, pseudovirus neutralization was 8.75 µg/mL.

Question: And the IC50, pseudovirus neutralization [4]?
Answer: The IC50, pseudovirus neutralization was greater than 50 µg/mL.

Question: What about the IC50, pseudovirus neutralization [5] of the same substance?
Answer: Its IC50, pseudovirus neutralization is 38.6 µg/mL.

Question: What about the IC50, pseudovirus neutralization [6] of the same substance?
Answer: The IC50, pseudovirus neutralization was greater than 50 µg/mL.

Question: What about the IC50, pseudovirus neutralization [7] of the same substance?
Answer: Its IC50, pseudovirus neutralization is greater than 50 µg/mL.

Question: And the IC50, pseudovirus neutralization [8]?
Answer: Its IC50, pseudovirus neutralization is greater than 50 µg/mL.

Question: And the IC50, pseudovirus neutralization [9]?
Answer: Its IC50, pseudovirus neutralization is 4.26 µg/mL.

Question: Which results are given for 10E8v4 VL Y32M (antibody)?
Answer: IC50, pseudovirus neutralization [1]: 1.03 µg/mL; IC50, pseudovirus neutralization [2]: > 50 µg/mL; IC50, pseudovirus neutralization [3]: > 50 µg/mL; IC50, pseudovirus neutralization [4]: > 50 µg/mL; IC50, pseudovirus neutralization [5]: > 50 µg/mL; IC50, pseudovirus neutralization [6]: > 50 µg/mL; IC50, pseudovirus neutralization [7]: > 50 µg/mL; IC50, pseudovirus neutralization [8]: > 50 µg/mL; IC50, pseudovirus neutralization [9]: 29.8 µg/mL

Question: 10E8v4 VL Y32N (antibody) was tested. Which IC50, pseudovirus neutralization [1] did it give?
Answer: Its IC50, pseudovirus neutralization is 2.92 µg/mL.

Question: And the IC50, pseudovirus neutralization [2]?
Answer: Its IC50, pseudovirus neutralization is greater than 50 µg/mL.

Question: And the IC50, pseudovirus neutralization [3]?
Answer: Its IC50, pseudovirus neutralization is greater than 50 µg/mL.

Question: What about the IC50, pseudovirus neutralization [4] of the same substance?
Answer: The IC50, pseudovirus neutralization was greater than 50 µg/mL.

Question: And the IC50, pseudovirus neutralization [5]?
Answer: Its IC50, pseudovirus neutralization is greater than 50 µg/mL.

Question: What about the IC50, pseudovirus neutralization [6] of the same substance?
Answer: The IC50, pseudovirus neutralization was greater than 50 µg/mL.

Question: What about the IC50, pseudovirus neutralization [7] of the same substance?
Answer: Its IC50, pseudovirus neutralization is greater than 50 µg/mL.

Question: What about the IC50, pseudovirus neutralization [8] of the same substance?
Answer: The IC50, pseudovirus neutralization was greater than 50 µg/mL.

Question: What about the IC50, pseudovirus neutralization [9] of the same substance?
Answer: Its IC50, pseudovirus neutralization is greater than 50 µg/mL.

Question: With 10E8v4 VL Y32P (antibody) as the substance, how does the IC50, pseudovirus neutralization [1] read?
Answer: The IC50, pseudovirus neutralization was 3.2 µg/mL.

Question: What about the IC50, pseudovirus neutralization [2] of the same substance?
Answer: Its IC50, pseudovirus neutralization is greater than 50 µg/mL.

Question: What about the IC50, pseudovirus neutralization [3] of the same substance?
Answer: Its IC50, pseudovirus neutralization is greater than 50 µg/mL.

Question: And the IC50, pseudovirus neutralization [4]?
Answer: The IC50, pseudovirus neutralization was greater than 50 µg/mL.

Question: And the IC50, pseudovirus neutralization [5]?
Answer: Its IC50, pseudovirus neutralization is greater than 50 µg/mL.

Question: And the IC50, pseudovirus neutralization [6]?
Answer: Its IC50, pseudovirus neutralization is greater than 50 µg/mL.

Question: And the IC50, pseudovirus neutralization [7]?
Answer: The IC50, pseudovirus neutralization was greater than 50 µg/mL.

Question: What about the IC50, pseudovirus neutralization [8] of the same substance?
Answer: The IC50, pseudovirus neutralization was greater than 50 µg/mL.

Question: What about the IC50, pseudovirus neutralization [9] of the same substance?
Answer: The IC50, pseudovirus neutralization was greater than 50 µg/mL.

Question: 10E8v4 VL Y32Q (antibody) was tested. Which IC50, pseudovirus neutralization [1] did it give?
Answer: Its IC50, pseudovirus neutralization is 0.281 µg/mL.

Question: And the IC50, pseudovirus neutralization [2]?
Answer: Its IC50, pseudovirus neutralization is greater than 50 µg/mL.

Question: What about the IC50, pseudovirus neutralization [3] of the same substance?
Answer: The IC50, pseudovirus neutralization was greater than 50 µg/mL.

Question: What about the IC50, pseudovirus neutralization [4] of the same substance?
Answer: The IC50, pseudovirus neutralization was greater than 50 µg/mL.

Question: And the IC50, pseudovirus neutralization [5]?
Answer: The IC50, pseudovirus neutralization was greater than 50 µg/mL.

Question: And the IC50, pseudovirus neutralization [6]?
Answer: Its IC50, pseudovirus neutralization is greater than 50 µg/mL.

Question: And the IC50, pseudovirus neutralization [7]?
Answer: Its IC50, pseudovirus neutralization is greater than 50 µg/mL.

Question: What about the IC50, pseudovirus neutralization [8] of the same substance?
Answer: The IC50, pseudovirus neutralization was greater than 50 µg/mL.

Question: And the IC50, pseudovirus neutralization [9]?
Answer: The IC50, pseudovirus neutralization was 11.5 µg/mL.

Question: For 10E8v4 VL Y32R (antibody), which IC50, pseudovirus neutralization [1] is on record?
Answer: The IC50, pseudovirus neutralization was 0.152 µg/mL.

Question: What about the IC50, pseudovirus neutralization [2] of the same substance?
Answer: The IC50, pseudovirus neutralization was greater than 50 µg/mL.

Question: And the IC50, pseudovirus neutralization [3]?
Answer: The IC50, pseudovirus neutralization was 7.52 µg/mL.

Question: And the IC50, pseudovirus neutralization [4]?
Answer: Its IC50, pseudovirus neutralization is greater than 50 µg/mL.

Question: And the IC50, pseudovirus neutralization [5]?
Answer: The IC50, pseudovirus neutralization was greater than 50 µg/mL.

Question: What about the IC50, pseudovirus neutralization [6] of the same substance?
Answer: Its IC50, pseudovirus neutralization is greater than 50 µg/mL.

Question: What about the IC50, pseudovirus neutralization [7] of the same substance?
Answer: The IC50, pseudovirus neutralization was greater than 50 µg/mL.

Question: And the IC50, pseudovirus neutralization [8]?
Answer: Its IC50, pseudovirus neutralization is greater than 50 µg/mL.

Question: What about the IC50, pseudovirus neutralization [9] of the same substance?
Answer: The IC50, pseudovirus neutralization was 4.08 µg/mL.

Question: 10E8v4 VL Y32T (antibody) was tested. Which IC50, pseudovirus neutralization [1] did it give?
Answer: Its IC50, pseudovirus neutralization is 0.145 µg/mL.

Question: What about the IC50, pseudovirus neutralization [2] of the same substance?
Answer: Its IC50, pseudovirus neutralization is greater than 50 µg/mL.

Question: And the IC50, pseudovirus neutralization [3]?
Answer: Its IC50, pseudovirus neutralization is 9.25 µg/mL.

Question: What about the IC50, pseudovirus neutralization [4] of the same substance?
Answer: Its IC50, pseudovirus neutralization is greater than 50 µg/mL.

Question: And the IC50, pseudovirus neutralization [5]?
Answer: The IC50, pseudovirus neutralization was greater than 50 µg/mL.

Question: And the IC50, pseudovirus neutralization [6]?
Answer: The IC50, pseudovirus neutralization was 43.5 µg/mL.

Question: What about the IC50, pseudovirus neutralization [7] of the same substance?
Answer: Its IC50, pseudovirus neutralization is greater than 50 µg/mL.

Question: And the IC50, pseudovirus neutralization [8]?
Answer: Its IC50, pseudovirus neutralization is greater than 50 µg/mL.

Question: And the IC50, pseudovirus neutralization [9]?
Answer: Its IC50, pseudovirus neutralization is 3.76 µg/mL.

Question: 10E8v4 VL Y32V (antibody) was tested. Which IC50, pseudovirus neutralization [1] did it give?
Answer: The IC50, pseudovirus neutralization was 0.558 µg/mL.

Question: What about the IC50, pseudovirus neutralization [2] of the same substance?
Answer: The IC50, pseudovirus neutralization was greater than 50 µg/mL.

Question: What about the IC50, pseudovirus neutralization [3] of the same substance?
Answer: Its IC50, pseudovirus neutralization is 28.2 µg/mL.

Question: And the IC50, pseudovirus neutralization [4]?
Answer: Its IC50, pseudovirus neutralization is greater than 50 µg/mL.

Question: What about the IC50, pseudovirus neutralization [5] of the same substance?
Answer: The IC50, pseudovirus neutralization was greater than 50 µg/mL.

Question: And the IC50, pseudovirus neutralization [6]?
Answer: The IC50, pseudovirus neutralization was greater than 50 µg/mL.

Question: And the IC50, pseudovirus neutralization [7]?
Answer: Its IC50, pseudovirus neutralization is greater than 50 µg/mL.

Question: What about the IC50, pseudovirus neutralization [8] of the same substance?
Answer: Its IC50, pseudovirus neutralization is greater than 50 µg/mL.

Question: What about the IC50, pseudovirus neutralization [9] of the same substance?
Answer: The IC50, pseudovirus neutralization was 4.96 µg/mL.

Question: Which IC50, pseudovirus neutralization [1] does the source give for 10E8v4 VL Y32W (antibody) here?
Answer: The IC50, pseudovirus neutralization was 0.005 µg/mL.

Question: And the IC50, pseudovirus neutralization [2]?
Answer: The IC50, pseudovirus neutralization was greater than 50 µg/mL.

Question: And the IC50, pseudovirus neutralization [3]?
Answer: The IC50, pseudovirus neutralization was 0.089 µg/mL.

Question: What about the IC50, pseudovirus neutralization [4] of the same substance?
Answer: The IC50, pseudovirus neutralization was 0.719 µg/mL.

Question: What about the IC50, pseudovirus neutralization [5] of the same substance?
Answer: The IC50, pseudovirus neutralization was 0.055 µg/mL.

Question: And the IC50, pseudovirus neutralization [6]?
Answer: The IC50, pseudovirus neutralization was 1.07 µg/mL.

Question: What about the IC50, pseudovirus neutralization [7] of the same substance?
Answer: The IC50, pseudovirus neutralization was 1.4 µg/mL.

Question: And the IC50, pseudovirus neutralization [8]?
Answer: Its IC50, pseudovirus neutralization is greater than 50 µg/mL.

Question: What about the IC50, pseudovirus neutralization [9] of the same substance?
Answer: Its IC50, pseudovirus neutralization is 0.029 µg/mL.
